Molecular target: FITC-labelled type I collagen (UniProt P02453)
Sequence of UniProt P02453 (P02453 23-1217, chain 1 of 2): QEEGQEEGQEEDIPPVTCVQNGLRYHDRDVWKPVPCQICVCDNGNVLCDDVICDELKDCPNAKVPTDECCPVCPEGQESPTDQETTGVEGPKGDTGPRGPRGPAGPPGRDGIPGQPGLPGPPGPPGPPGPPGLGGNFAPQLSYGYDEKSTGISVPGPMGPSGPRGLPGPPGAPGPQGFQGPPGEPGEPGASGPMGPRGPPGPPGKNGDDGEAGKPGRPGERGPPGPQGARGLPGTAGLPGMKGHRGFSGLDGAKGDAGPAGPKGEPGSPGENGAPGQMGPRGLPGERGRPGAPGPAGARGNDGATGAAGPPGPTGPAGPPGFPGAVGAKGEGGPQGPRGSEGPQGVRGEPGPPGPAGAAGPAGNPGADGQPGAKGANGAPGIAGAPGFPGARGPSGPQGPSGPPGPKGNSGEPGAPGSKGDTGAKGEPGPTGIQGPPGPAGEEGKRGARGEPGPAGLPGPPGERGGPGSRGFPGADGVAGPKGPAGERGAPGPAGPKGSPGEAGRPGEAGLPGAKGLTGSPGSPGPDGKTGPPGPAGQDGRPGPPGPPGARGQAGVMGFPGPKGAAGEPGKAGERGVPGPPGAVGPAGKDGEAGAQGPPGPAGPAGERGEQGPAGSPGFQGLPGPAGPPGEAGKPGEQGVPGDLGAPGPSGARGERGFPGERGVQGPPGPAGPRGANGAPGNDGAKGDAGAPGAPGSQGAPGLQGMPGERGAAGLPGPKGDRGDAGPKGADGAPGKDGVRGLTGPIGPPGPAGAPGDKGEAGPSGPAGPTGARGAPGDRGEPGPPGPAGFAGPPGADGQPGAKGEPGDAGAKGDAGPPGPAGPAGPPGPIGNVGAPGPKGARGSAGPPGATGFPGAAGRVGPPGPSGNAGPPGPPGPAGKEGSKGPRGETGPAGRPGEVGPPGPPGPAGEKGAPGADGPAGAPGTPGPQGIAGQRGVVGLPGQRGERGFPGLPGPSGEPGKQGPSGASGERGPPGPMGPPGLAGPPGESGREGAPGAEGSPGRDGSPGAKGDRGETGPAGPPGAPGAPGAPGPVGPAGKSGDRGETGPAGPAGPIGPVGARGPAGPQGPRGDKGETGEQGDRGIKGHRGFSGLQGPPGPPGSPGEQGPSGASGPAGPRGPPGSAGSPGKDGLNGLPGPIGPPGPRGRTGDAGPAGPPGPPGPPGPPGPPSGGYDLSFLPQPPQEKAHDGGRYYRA
Sequence of UniProt P02453 (P02465 80-1117, chain 2 of 2, further chain): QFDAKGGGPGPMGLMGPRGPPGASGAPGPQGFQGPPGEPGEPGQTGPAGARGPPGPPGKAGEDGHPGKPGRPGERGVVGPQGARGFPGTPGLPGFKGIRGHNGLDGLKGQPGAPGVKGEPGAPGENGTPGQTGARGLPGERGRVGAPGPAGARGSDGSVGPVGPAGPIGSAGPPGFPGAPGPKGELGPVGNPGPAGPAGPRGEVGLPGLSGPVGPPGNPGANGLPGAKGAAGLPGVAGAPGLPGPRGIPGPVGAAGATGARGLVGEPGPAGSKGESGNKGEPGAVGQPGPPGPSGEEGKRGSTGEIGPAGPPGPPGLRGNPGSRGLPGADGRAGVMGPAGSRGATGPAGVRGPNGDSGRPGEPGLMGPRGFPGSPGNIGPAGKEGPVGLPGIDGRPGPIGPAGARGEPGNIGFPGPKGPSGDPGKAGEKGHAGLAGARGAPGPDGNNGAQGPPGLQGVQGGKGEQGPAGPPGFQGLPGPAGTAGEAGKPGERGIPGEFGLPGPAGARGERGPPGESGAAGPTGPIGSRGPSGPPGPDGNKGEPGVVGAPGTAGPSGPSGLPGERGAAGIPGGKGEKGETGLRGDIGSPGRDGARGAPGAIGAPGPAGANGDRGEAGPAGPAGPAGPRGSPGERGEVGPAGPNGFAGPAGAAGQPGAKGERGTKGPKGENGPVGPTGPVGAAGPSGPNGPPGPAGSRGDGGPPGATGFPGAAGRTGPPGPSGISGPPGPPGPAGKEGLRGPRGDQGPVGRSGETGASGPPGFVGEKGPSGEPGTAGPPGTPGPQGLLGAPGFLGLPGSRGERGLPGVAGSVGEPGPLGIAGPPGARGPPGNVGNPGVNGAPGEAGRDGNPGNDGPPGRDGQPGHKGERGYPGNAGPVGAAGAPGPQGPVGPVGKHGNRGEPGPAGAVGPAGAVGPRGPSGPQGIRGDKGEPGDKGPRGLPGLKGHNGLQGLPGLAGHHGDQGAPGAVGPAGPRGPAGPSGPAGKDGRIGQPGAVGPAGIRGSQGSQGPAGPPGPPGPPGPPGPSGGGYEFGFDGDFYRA

Substance	Km of hydrolysis of FITC-labelled type I collagen (Lineweaver-Burk plot; 50 mM Tris-HCl, 0.2 M NaCl, 5 mM CaCl2, pH 7.5, 30 °C) [mM]
purified collagenase product from C. histolyticum	0.00189
recombinant 62-kDa collagenase from Grimontia hollisae (enzyme)	0.00109
